Experimental findings from patent US20060258607 are described below.

For this data set, the target named is biotinylated human D-ghrelin (octanoylated) (Homo sapiens) (UniProt Q9UBU3). Description: pulldown. Conditions: 37 C, 1 mM Ca/Mg, 47% active.
Sequence of UniProt Q9UBU3 (Q9UBU3 24-51): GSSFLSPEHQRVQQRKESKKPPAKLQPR

“CGUGUGAGGCAAUAAAACUUAAGUCCGAAGGUAACCAAUCCUACACG [SOT-C (B11trc, D-RNA)]”: the Kd is 100 nM.

One may read the Kd as the equilibrium constant for the complex coming apart. Low readings indicate higher affinity, high ones lower affinity.
